US12168686
pKd: −log10 of the molar value.

What was measured:
[1] = target: soluble DR5-Fc fusion protein (UniProt O14763); experiment: BLI (ForteBio Octet), biotin-labeled DR5-Fc on streptavidin sensors
[2] = target: soluble DR5-Fc fusion protein (UniProt O14763); experiment: BLI (ForteBio Octet), ratio of koff against TRAIL-Trimer
[3] = target: soluble DR5-Fc fusion protein (UniProt O14763); experiment: BLI (ForteBio Octet), biotin-labeled DR5-Fc on streptavidin sensors, analyte 15.4 nM-123.5 nM
[4] = target: soluble DR5-Fc fusion protein (UniProt O14763); experiment: BLI (ForteBio Octet), ratio of kon against TRAIL-Trimer

Sequence of native TRAIL (recombinant soluble human TRAIL from E. coli) (P50591 114-281 limits assumed): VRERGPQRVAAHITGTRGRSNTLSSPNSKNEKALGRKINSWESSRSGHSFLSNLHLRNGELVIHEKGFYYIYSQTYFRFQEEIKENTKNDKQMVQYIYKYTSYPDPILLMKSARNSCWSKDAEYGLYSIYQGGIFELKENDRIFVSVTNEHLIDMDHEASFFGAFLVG
Sequence of soluble DR5-Fc fusion protein (O14763 56-182 limits assumed): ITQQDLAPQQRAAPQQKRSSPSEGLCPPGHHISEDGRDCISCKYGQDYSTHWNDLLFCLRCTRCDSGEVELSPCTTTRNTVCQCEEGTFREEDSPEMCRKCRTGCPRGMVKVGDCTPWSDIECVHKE

koff [1]: 4.6e-05 s⁻¹
kon [1]: 175000 M⁻¹ s⁻¹
fold faster dissociation than TRAIL-Trimer [2]: > 460 fold
pKd [3]: 9.58
fold faster association than TRAIL-Trimer [4]: 2 fold
Substance: native TRAIL (recombinant soluble human TRAIL from E. coli) (from UniProt P50591 114-281) (ligand)
